Earlier results on 1 substance are cited in paper PMC4005919.

This data set concerns the target BID BH3 (Homo sapiens) (UniProt P55957).

Chain of BAK (Q16611 2-211): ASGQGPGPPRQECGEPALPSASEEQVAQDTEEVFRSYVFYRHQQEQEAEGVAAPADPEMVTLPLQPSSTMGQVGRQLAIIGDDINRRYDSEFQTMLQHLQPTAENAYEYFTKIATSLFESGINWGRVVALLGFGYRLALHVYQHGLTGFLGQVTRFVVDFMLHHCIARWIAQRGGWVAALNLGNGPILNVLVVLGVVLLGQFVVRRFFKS
Chain of BID BH3 (Homo sapiens) (P55957 80-99): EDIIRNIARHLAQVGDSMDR

Broadly, the Kd is the free concentration of one partner at which half of the binding sites on the other are occupied at equilibrium, for simple one-to-one binding. In the case of BAK (from UniProt Q16611), the Kd is 10 µM.
